Biological target: human wild type MC4R (Homo sapiens, UniProt P32245)
Assay: cAMP signaling assay (Lance Ultra HTRF)
Assay type: cell-based
Parameters: double Twin Strep tag; expressed in transfected cells; host or cells: HEK293
Conditions: purified nanobodies, human MC4R-overexpressing HEK293 cells, read-out: potencies, MC4R-mediated dose-dependent cAMP accumulation
Procedure: To confirm MC4R activation, dose-dependent nanobody-induced cAMP signaling was assessed (Lance Ultra HTRF). […] Binding of pN162 to the human melanocortin receptor subtypes MC1R, MC2R, MC3R, MC4R or MC5R transiently expressed as Flag-tagged receptors in HEK293T cells was assessed by flow cytometry.

human wild type MC4R, sequence (P32245 whole entry): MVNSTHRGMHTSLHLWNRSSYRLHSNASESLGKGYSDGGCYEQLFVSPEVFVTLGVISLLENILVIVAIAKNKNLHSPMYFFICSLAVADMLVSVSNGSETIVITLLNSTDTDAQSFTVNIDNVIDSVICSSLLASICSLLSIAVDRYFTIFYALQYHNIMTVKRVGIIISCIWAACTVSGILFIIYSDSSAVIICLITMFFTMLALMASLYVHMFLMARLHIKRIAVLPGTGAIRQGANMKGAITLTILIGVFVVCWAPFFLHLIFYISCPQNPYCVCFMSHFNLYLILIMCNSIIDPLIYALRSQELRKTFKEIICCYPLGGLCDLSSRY

Row | Molecule | EC50
1 | pN152: agonistic anti-MC4R VHH, SEQ ID NO: 183 (protein, pN0152) VHH: QVQLVESGGGLVQPGGSLKLSCAASGSISSKSDWGWYRQAPGKERELVAQITSGGNLKYASAVTGRFTISRDNAKNTVNLLMSRLKPEDTAIYFCNARTWRLVRYYDYWGQGTQVTVSS | 0.7 nM
2 | pN161: agonistic anti-MC4R VHH, SEQ ID NO: 314 (protein, PN0161) VHH: QVQLVESGGGLVQAGGSLRLSCAASGSISRTNGMGWYRQAPGKQRELVAAITTGGSTNYANSAKGRFTISRDNAKNTVYLQMNSLKPEDTAVYYCNARYGSSSFRWGDFEVWGQGTQVTVSS | 393 nM

From patent US20260103529A1, “Amino Acid Sequences Directed Against the Melanocortin 4 Receptor and Polypeptides Comprising the Same for the Treatment of MC4R-Related Diseases and Disorders” (Confo Therapeutics N.V., priority 2022, published 2026)
